The term Km denotes the concentration of substrate that gives half-maximal velocity.

Several values for one entry are separate records, joined by “and”; a condition that tells them apart may be missing. Equal values may be shown once.

This is an account of results in publication PMC9599461, “Stereoselectivity in the Membrane Transport of Phenylethylamine Derivatives by Human Monoamine Transporters and Organic Cation Transporters 1, 2, and 3” (Biomolecules, 2022).

In one data set the test system is CNCC(O)c1ccc(O)c(OC)c1. The experiment in a line: cells, lysate or membranes. Particulars: other: HEK293 cells overexpressing human SERT; racemic substrate, two minutes; net uptake minus empty vector control; 37.0 °C.
The next data set concerns CNC[C@@H](O)c1ccc(O)cc1. The experiment in a line: cells, lysate or membranes. The following applies: other: HEK293 cells overexpressing human SERT; racemic substrate, two minutes; net uptake minus empty vector control; 37.0 °C.
In the next data set the test system is COc1cc(C(O)CN)ccc1O. The experiment in a line: cells, lysate or membranes. The following applies: other: HEK293 cells overexpressing human SERT; racemic substrate, two minutes; net uptake minus empty vector control; 37.0 °C.
Another data set has as its system NCC(O)c1cccc(O)c1. The experiment in a line: cells, lysate or membranes. The following applies: other: HEK293 cells overexpressing human SERT; racemic substrate, two minutes; net uptake minus empty vector control; 37.0 °C.
The next data set deals with NC[C@@H](O)c1ccc(O)cc1. The experiment in a line: cells, lysate or membranes. The following applies: other: HEK293 cells overexpressing human SERT; racemic substrate, two minutes; net uptake minus empty vector control; 37.0 °C.
The test system of a further data set is NC[C@H](O)c1ccc(O)cc1. Kind of data set: cells, lysate or membranes. The following applies: other: HEK293 cells overexpressing human SERT; racemic substrate, two minutes; net uptake minus empty vector control; 37.0 °C.
Data set [1] has as its system [H][C@](O)(CNC)c1ccc(O)cc1. Kind of data set: cells, lysate or membranes. The following applies: other: HEK293 cells overexpressing human SERT; racemic substrate, two minutes; net uptake minus empty vector control; 37.0 °C.
The next data set relates to Alpha-1 adrenoreceptor. The following applies: cited from earlier work.
For a further data set, the system named is Alpha-2 adrenoreceptor. Also noted: method as in PMID 2833972. The following applies: cited from earlier work.
In the next data set the target is SERT (Homo sapiens, UniProt P31645). Kind of data set: Stereoselective uptake into SERT-overexpressing HEK293 cells. Particulars: SERT; ratio between enantiomers, given as for (R) or for 1.
In a further data set the target is T1, OCT2 (wild-type) (Homo sapiens, UniProt O15244).
T1 sequence (O15244 1-555 S270A): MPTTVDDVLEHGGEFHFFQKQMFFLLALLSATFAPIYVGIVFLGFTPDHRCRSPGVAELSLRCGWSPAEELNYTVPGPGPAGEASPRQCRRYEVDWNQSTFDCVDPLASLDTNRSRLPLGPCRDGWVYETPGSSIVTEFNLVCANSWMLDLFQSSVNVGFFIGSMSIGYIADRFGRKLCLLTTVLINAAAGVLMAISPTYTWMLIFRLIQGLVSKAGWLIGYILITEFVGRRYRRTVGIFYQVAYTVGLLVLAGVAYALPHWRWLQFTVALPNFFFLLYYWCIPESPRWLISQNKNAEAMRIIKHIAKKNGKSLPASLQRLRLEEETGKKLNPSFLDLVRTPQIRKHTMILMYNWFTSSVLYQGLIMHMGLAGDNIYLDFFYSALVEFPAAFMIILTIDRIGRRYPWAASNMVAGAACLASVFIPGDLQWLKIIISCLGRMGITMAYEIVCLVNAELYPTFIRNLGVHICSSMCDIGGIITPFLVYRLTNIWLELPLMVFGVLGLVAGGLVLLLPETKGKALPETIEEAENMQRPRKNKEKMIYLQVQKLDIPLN
The experiment in a line: Stereoselective uptake into OCT2 (wild-type)-overexpressing HEK293 cells. The following applies: human, 100 μM racemic substance, two minutes, uptake ratio of enantiomers, given as for (R).

For data set [2], the system named is OCT2 A270S variant. Kind of data set: Stereoselective uptake into OCT2 A270S variant-overexpressing HEK293 cells.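 Further: uptake into HEK293 cells stably overexpressing human OCT2 variants, intracellular enantiomers quantified by chiral HPLC-MS/MS and normalized to total protein.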 Particulars: human, HEK293 cells stably overexpressing human OCT2 A270S variant.
Data set [3] concerns OCT2 A270S variant. The experiment in a line: in vitro. The following applies: human, Stereoselectivity OCT2_A270S, 100 μM racemic substance, two minutes; uptake ratio of enantiomers, given as for (R).
The target in the next data set is T2, OCT3 (Homo sapiens, UniProt O75751).
T2 sequence (O75751 1-556): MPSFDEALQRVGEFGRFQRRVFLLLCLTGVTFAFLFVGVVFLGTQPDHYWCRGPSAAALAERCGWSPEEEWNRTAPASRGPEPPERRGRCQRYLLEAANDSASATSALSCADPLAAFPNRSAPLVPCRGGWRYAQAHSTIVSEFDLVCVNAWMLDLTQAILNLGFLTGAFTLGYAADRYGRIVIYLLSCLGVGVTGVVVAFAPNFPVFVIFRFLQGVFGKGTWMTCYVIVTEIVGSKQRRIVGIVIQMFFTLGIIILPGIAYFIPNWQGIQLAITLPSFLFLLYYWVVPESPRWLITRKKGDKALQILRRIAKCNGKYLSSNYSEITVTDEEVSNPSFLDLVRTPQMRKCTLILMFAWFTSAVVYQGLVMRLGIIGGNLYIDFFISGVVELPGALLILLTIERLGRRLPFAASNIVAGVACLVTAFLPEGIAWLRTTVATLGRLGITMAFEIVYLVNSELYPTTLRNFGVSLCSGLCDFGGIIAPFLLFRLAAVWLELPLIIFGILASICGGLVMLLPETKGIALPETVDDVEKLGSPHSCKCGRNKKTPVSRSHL
Kind of data set: Stereoselective uptake into OCT3-overexpressing HEK293 cells.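 Further: intracellular accumulation in HEK293 cells measured by chiral HPLC-MS/MS after a 2 min substrate exposure at 37 °C, uptake normalized to total protein (bicinchoninic acid assay).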 Particulars: OCT3; ratio between enantiomers, given as for (R) or for 1.

Substrate in data set [4]: CNCC(O)c1ccc(O)c(OC)c1
Kind of data set: cells, lysate or membranes. Particulars: other: HEK293 cells overexpressing human OCT2; racemic substrate, two minutes; net uptake minus empty vector control; 37.0 °C.

Substrate in data set [5]: CNCC(O)c1ccccc1
The experiment in a line: cells, lysate or membranes. Particulars: other: HEK293 cells overexpressing human OCT2; racemic substrate, two minutes; net uptake minus empty vector control; 37.0 °C.

Substrate in data set [6]: CNC[C@@H](O)c1ccc(O)cc1
The experiment in a line: cells, lysate or membranes. The following applies: other: HEK293 cells overexpressing human OCT2; racemic substrate, two minutes; net uptake minus empty vector control; 37.0 °C.

Substrate in data set [7]: CNC[C@@H](O)c1cccc(O)c1
Kind of data set: cells, lysate or membranes. Particulars: other: HEK293 cells overexpressing human OCT2; racemic substrate, two minutes; net uptake minus empty vector control; 37.0 °C.

Substrate in data set [8]: CNC[C@H](O)c1cccc(O)c1
The experiment in a line: cells, lysate or membranes. Particulars: other: HEK293 cells overexpressing human OCT2; racemic substrate, two minutes; net uptake minus empty vector control; 37.0 °C.

Substrate in data set [9]: COc1cc(C(O)CN)ccc1O
The experiment in a line: cells, lysate or membranes. The following applies: other: HEK293 cells overexpressing human OCT2; racemic substrate, two minutes; net uptake minus empty vector control; 37.0 °C.

Substrate in data set [10]: NCC(O)c1cccc(O)c1
Kind of data set: cells, lysate or membranes. The following applies: other: HEK293 cells overexpressing human OCT2; racemic substrate, two minutes; net uptake minus empty vector control; 37.0 °C.

Substrate in data set [11]: NC[C@H](O)c1ccc(O)cc1
The experiment in a line: cells, lysate or membranes. Particulars: other: HEK293 cells overexpressing human OCT2; racemic substrate, two minutes; net uptake minus empty vector control; 37.0 °C.

Substrate in data set [12]: [H][C@](O)(CNC)c1ccc(O)cc1
Kind of data set: cells, lysate or membranes. The following applies: other: HEK293 cells overexpressing human OCT2; racemic substrate, two minutes; net uptake minus empty vector control; 37.0 °C.

Sequence of SERT (P31645 whole entry): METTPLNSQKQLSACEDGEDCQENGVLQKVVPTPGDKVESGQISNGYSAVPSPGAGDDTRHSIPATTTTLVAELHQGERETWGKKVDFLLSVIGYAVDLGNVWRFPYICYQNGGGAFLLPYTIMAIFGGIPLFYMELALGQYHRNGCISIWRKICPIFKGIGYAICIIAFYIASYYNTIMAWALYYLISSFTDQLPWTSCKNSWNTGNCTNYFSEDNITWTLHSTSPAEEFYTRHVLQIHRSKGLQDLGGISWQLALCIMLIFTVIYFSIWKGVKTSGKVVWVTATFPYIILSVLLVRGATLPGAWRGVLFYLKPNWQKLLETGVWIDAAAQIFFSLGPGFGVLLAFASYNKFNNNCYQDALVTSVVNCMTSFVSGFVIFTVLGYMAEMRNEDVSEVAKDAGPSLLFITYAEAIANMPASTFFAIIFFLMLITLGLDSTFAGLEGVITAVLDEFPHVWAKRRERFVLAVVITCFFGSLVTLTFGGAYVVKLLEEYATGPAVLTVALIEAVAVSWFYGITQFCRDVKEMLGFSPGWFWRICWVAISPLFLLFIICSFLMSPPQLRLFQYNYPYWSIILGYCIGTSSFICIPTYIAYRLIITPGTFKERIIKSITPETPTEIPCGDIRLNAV

For the molecule SERT (Homo sapiens), the Km is 151 µM and 165 µM in the data set with CNCC(O)c1ccc(O)c(OC)c1; 804 µM in the data set with CNC[C@@H](O)c1ccc(O)cc1; 42.0 µM and 38.7 µM with COc1cc(C(O)CN)ccc1O; 333 µM and 277 µM with NCC(O)c1cccc(O)c1; 42.9 µM in the data set on NC[C@@H](O)c1ccc(O)cc1; 59.6 µM in the data set on NC[C@H](O)c1ccc(O)cc1. Also, the Km in [1] is 528 µM. In addition, the Vmax with CNCC(O)c1ccc(O)c(OC)c1 is 87.4 pmol × mg Protein^−1 × min^−1 and 94.5 pmol × mg Protein^−1 × min^−1; in the data set with CNC[C@@H](O)c1ccc(O)cc1 it was 491 pmol × mg Protein^−1 × min^−1; in the data set on COc1cc(C(O)CN)ccc1O, 93.6 pmol × mg Protein^−1 × min^−1 and 157 pmol × mg Protein^−1 × min^−1; in the data set on NCC(O)c1cccc(O)c1, 400 pmol × mg Protein^−1 × min^−1 and 508 pmol × mg Protein^−1 × min^−1; in the data set with NC[C@@H](O)c1ccc(O)cc1, 104 pmol × mg Protein^−1 × min^−1; in the data set on NC[C@H](O)c1ccc(O)cc1, 247 pmol × mg Protein^−1 × min^−1. The Vmax in [1] is listed as 363 pmol × mg Protein^−1 × min^−1.
Regarding `NCC(O)c1ccc(O)cc1` (stereo not shown) [Octopamine], the “Enantiomeric Activity Ratio (R/S) in Receptor Binding Alpha-1” value in the data set with Alpha-1 adrenoreceptor is given as 5. In addition, the “Enantiomeric Activity Ratio (R/S) in Receptor Binding Alpha-2” value in the data set on Alpha-2 adrenoreceptor is 3. Further, the “Stereoselectivity Vmax” value on SERT amounted to 2.4 fold. In addition, the selectivity ratio at 2 min, 100 μM on OCT2 (wild-type) (HEK293 cells stably overexpressing human wild-type OCT2, Stereoselectivity OCT2_WT) is 1.74; with OCT2 A270S variant [2], 1.69.
For the molecule `CNC[C@H](O)c1cccc(O)c1` [Phenylephrine], the “Enantiomeric Activity Ratio (R/S) in Receptor Binding Alpha-1” value with Alpha-1 adrenoreceptor is 420. The “Enantiomeric Activity Ratio (R/S) in Receptor Binding Alpha-2” value in the data set on Alpha-2 adrenoreceptor is listed as 45. The values for the selectivity ratio at 2 min, 100 μM in the data set on OCT2 A270S variant [3] and on OCT2 (wild-type) (Stereoselectivity OCT2_WT) were 1.16 and 1.3, respectively. The “Stereoselectivity Vmax” value on OCT3 is listed as 3.3 fold.
As to `NCC(O)c1cccc(O)c1` (stereo not shown) [Norphenylephrine], in the data set with Alpha-1 adrenoreceptor, the “Enantiomeric Activity Ratio (R/S) in Receptor Binding Alpha-1” value was 8. In the data set on Alpha-2 adrenoreceptor, the “Enantiomeric Activity Ratio (R/S) in Receptor Binding Alpha-2” value is recorded as 3. The results for the selectivity ratio at 2 min, 100 μM in the data set on OCT2 A270S variant [3] and at OCT2 (wild-type) (Stereoselectivity OCT2_WT) were 1.46 and 1.54, respectively. On OCT3, the “Stereoselectivity Vmax” value was 3.9 fold.

B1: OCT2 (Homo sapiens; S270A) (protein)
chain: T1 sequence (O15244 1-555 S270A)
With B1, the Michaelis constant (Km) is 54.7 µM and 68.1 µM in data set [4]; 12.8 µM and 19.3 µM in [5]; 214 µM in [6]; 112 µM in [7]; 212 µM in data set [8]; 464 µM and 613 µM in data set [9]. Moreover, the Km in [10] was 911 µM and 582 µM; in data set [11], 636 µM; in [12], 443 µM. The Vmax was 329 pmol × mg Protein^−1 × min^−1 and 261 pmol × mg Protein^−1 × min^−1 in data set [5]; 5307 pmol × mg Protein^−1 × min^−1 in [6]; 3068 pmol × mg Protein^−1 × min^−1 in data set [7]; 6263 pmol × mg Protein^−1 × min^−1 in [8]; 2747 pmol × mg Protein^−1 × min^−1 and 5665 pmol × mg Protein^−1 × min^−1 in data set [9]; 33143 pmol × mg Protein^−1 × min^−1 and 15157 pmol × mg Protein^−1 × min^−1 in data set [10]. Further, the Vmax in data set [11] is on record as 25182 pmol × mg Protein^−1 × min^−1; in data set [12] it was 10877 pmol × mg Protein^−1 × min^−1.
